Data as given in publication PMC13385800 (2026).

B1: TBLR1-LgBiT wild type [not stated] / SETD5-SmBiT [not stated] (parent complex)
chain 1: MSISSDEVNFLVYRYLQESGFSHSAFTFGIESHISQSNINGALVPPAALISIIQKGLQYVEAEVSINEDGTLFDGRPIESLSLIDAVMPDVVQTRQQAYRDKLAQQQAAAAAAAAAAASQQGSAKNGENTANGEENGAHTIANNHTDMMEVDGDVEIPPNKAVVLRGHESEVFICAWNPVSDLLASGSGDSTARIWNLSENSTSGSTQLVLRHCIREGGQDVPSNKDVTSLDWNSEGTLLATGSYDGFARIWTKDGNLASTLGQHKGPIFALKWNKKGNFILSAGVDKTTIIWDAHTGEAKQQFPFHSAPALDVDWQSNNTFASCSTDMCIHVCKLGQDRPIKTFQGHTNEVNAIKWDPTGNLLASCSDDMTLKIWSMKQDNCVHDLQAHNKEIYTIKWSPTGPGTNNPNANLMLASASFDSTVRLWDVDRGICIHTLTKHQEPVYSVAFSPDGRYLASGSFDKCVHIWNTQTGALVHSYRGTGGIFEVCWNAAGDKVGASASDGSVCVLDLRK
chain 2: MSIAIPLGVTTSDTSYSDMAAGSDPESVEASPAVNEKSVYSTHNYGTTQRHGCRGLPYATIIPRSDLNGLPSPVEERCGDSPNSEGETVPTWCPCGLSQDGFLLNCDKCRGMSRGKVIRLHRRKQDNISGGDSSATESWDEELSPSTVLYTATQHTPTSITLTVRRTKPKKRKKSPEKGRAAPKTKKIKNSPSEAQNLDENTTEGWENRIRLWTDQYEEAFTNQYSADVQNALEQHLHSSKEFVGKPTILDTINKTELACNNTVIGSQMQLQLGRVTRVQKHRKILRAARDLALDTLIIEYRGKVMLRQQFEVNGHFFKKPYPFVLFYSKFNGVEMCVDARTFGNDARFIRRSCTPNAEVRHMIADGMIHLCIYAVSAITKDAEVTIAFDYEYSNCNYKVDCACHKGNRNCPIQKRNPNATELPLLPPPPSLPTIGAETRRRKARRKELEMEQQNEASEENNDQQSQEVPEKVTVSSDHEEVDNPEEKPEEEKEEVIDDQENLAHSRRTREDRKVEAIMHAFENLEKRKKRRDQPLEQSNSDVEITTTTSETPVGEETKTEAPESEVSNSVSNVTIPSTPQSVGVNTRRSSQAGDIAAEKLVPKPPPAKPSRPRPKSRISRYRTSSAQRLKRQKQANAQQAELSQAALEEGGSNSLVTPTEAGSLDSSGENRPLTGSDPTVVSITGSHVNRAASKYPKTKKYLVTEWLNDKAEKQECPVECPLRITTDPTVLATTLNMLPGLIHSPLICTTPKHYIRFGSPFIPERRRRPLLPDGTFSSCKKRWIKQALEEGMTQTSSVPQETRTQHLYQSNENSSSSSICKDNADLLSPLKKWKSRYLMEQNVTKLLRPLSPVTPPPPNSGSKSPQLATPGSSHPGEEECRNGYSLMFSPVTSLTTASRCNTPLQFELCHRKDLDLAKVGYLDSNTNSCADRPSLLNSGHSDLAPHPSLGPTSETGFPSRSGDGHQTLVRNSDQAFRTEFNLMYAYSPLNAMPRADGLYRGSPLVGDRKPLHLDGGYCSPAEGFSSRYEHGLMKDLSRGSLSPGGERACEGVPSAPQNPPQRKKVSLLEYRKRKQEAKENSAGGGGDSAQSKSKSAGAGQGSSNSVSDTGAHGVQGSSARTPSSPHKKFSPSHSSMSHLEAVSPSDSRGTSSSHCRPQENISSRWMVPTSVERLREGGSIPKVLRSSVRVAQKGEPSPTWESNITEKDSDPADGEGPETLSSALSKGATVYSPSRYSYQLLQCDSPRTESQSLLQQSSSPFRGHPTQSPGYSYRTTALRPGNPPSHGSSESSLSSTSYSSPAHPVSTDSLAPFTGTPGYFSSQPHSGNSTGSNLPRRSCPSSAASPTLQGPSDSPTSDSVSQSSTGTLSSTSFPQNSRSSLPSDLRTISLPSAGQSAVYQASRVSAVSNSQHYPHRGSGGVHQYRLQPLQGSGVKTQTGLS
B2: TBLR1-LgBiT wild type [not stated] / ANKRD11-SmBiT [not stated] (parent complex)
chain 1: B1 chain 1
chain 2: MPKGGCPKAPQQEELPLSSDMVEKQTGKKDKDKVSLTKTPKLERGDGGKEVRERASKRKLPFTAGANGEQKDSDTEKQGPERKRIKKEPVTRKAGLLFGMGLSGIRAGYPLSERQQVALLMQMTAEESANSPVDTTPKHPSQSTVCQKGTPNSASKTKDKVNKRNERGETRLHRAAIRGDARRIKELISEGADVNVKDFAGWTALHEACNRGYYDVAKQLLAAGAEVNTKGLDDDTPLHDAANNGHYKVVKLLLRYGGNPQQSNRKGETPLKVANSPTMVNLLLGKGTYTSSEESSTESSEEEDAPSFAPSSSVDGNNTDSEFEKGLKHKAKNPEPQKATAPVKDEYEFDEDDEQDRVPPVDDKHLLKKDYRKETKSNSFISIPKMEVKSYTKNNTIAPKKASHRILSDTSDEEDASVTVGTGEKLRLSAHTILPGSKTREPSNAKQQKEKNKVKKKRKKETKGREVRFGKRSDKFCSSESESESSESGEDDRDSLGSSGCLKGSPLVLKDPSLFSSLSASSTSSHGSSAAQKQNPSHTDQHTKHWRTDNWKTISSPAWSEVSSLSDSTRTRLTSESDYSSEGSSVESLKPVRKRQEHRKRASLSEKKSPFLSSAEGAVPKLDKEGKVVKKHKTKHKHKNKEKGQCSISQELKLKSFTYEYEDSKQKSDKAILLENDLSTENKLKVLKHDRDHFKKEEKLSKMKLEEKEWLFKDEKSLKRIKDTNKDISRSFREEKDRSNKAEKERSLKEKSPKEEKLRLYKEERKKKSKDRPSKLEKKNDLKEDKISKEKEKIFKEDKEKLKKEKVYREDSAFDEYCNKNQFLENEDTKFSLSDDQRDRWFSDLSDSSFDFKGEDSWDSPVTDYRDMKSDSVAKLILETVKEDSKERRRDSRAREKRDYREPFFRKKDRDYLDKNSEKRKEQTEKHKSVPGYLSEKDKKRRESAEAGRDRKDALESCKERRDGRAKPEEAHREELKECGCESGFKDKSDGDFGKGLEPWERHHPAREKEKKDGPDKERKEKTKPERYKEKSSDKDKSEKSILEKCQKDKEFDKCFKEKKDTKEKHKDTHGKDKERKASLDQGKEKKEKAFPGIISEDFSEKKDDKKGKEKSWYIADIFTDESEDDRDSCMGSGFKMGEASDLPRTDGLQEKEEGREAYASDRHRKSSDKQHPERQKDKEPRDRRKDRGAADAGRDKKEKVFEKHKEKKDKESTEKYKDRKDRASVDSTQDKKNKQKLPEKAEKKHAAEDKAKSKHKEKSDKEHSKERKSSRSADAEKSLLEKLEEEALHEYREDSNDKISEVSSDSFTDRGQEPGLTAFLEVSFTEPPGDDKPRESACLPEKLKEKERHRHSSSSSKKSHDRERAKKEKAEKKEKGEDYKEGGSRKDSGQYEKDFLEADAYGVSYNMKADIEDELDKTIELFSTEKKDKNDSEREPSKKIEKELKPYGSSAINILKEKKKREKHREKWRDEKERHRDRHADGLLRHHRDELLRHHRDEQKPATRDKDSPPRVLKDKSRDEGPRLGDAKLKEKFKDGAEKEKGDPVKMSNGNDKVAPSKDPGKKDARPREKLLGDGDLMMTSFERMLSQKDLEIEERHKRHKERMKQMEKLRHRSGDPKLKEKAKPADDGRKKGLDIPAKKPPGLDPPFKDKKLKESTPIPPAAENKLHPASGADSKDWLAGPHMKEVLPASPRPDQSRPTGVPTPTSVLSCPSYEEVMHTPRTPSCSADDYADLVFDCADSQHSTPVPTAPTSACSPSFFDRFSVASSGLSENASQAPARPLSTNLYRSVSVDIRRTPEEEFSVGDKLFRQQSVPAASSYDSPMPPSMEDRAPLPPVPAEKFACLSPGYYSPDYGLPSPKVDALHCPPAAVVTVTPSPEGVFSSLQAKPSPSPRAELLVPSLEGALPPDLDTSEDQQATAAIIPPEPSYLEPLDEGPFSAVITEEPVEWAHPSEQALASSLIGGTSENPVSWPVGSDLLLKSPQRFPESPKRFCPADPLHSAAPGPFSASEAPYPAPPASPAPYALPVAEPGLEDVKDGVDAVPAAISTSEAAPYAPPSGLESFFSNCKSLPEAPLDVAPEPACVAAVAQVEALGPLENSFLDGSRGLSHLGQVEPVPWADAFAGPEDDLDLGPFSLPELPLQTKDAADGEAEPVEESLAPPEEMPPGAPGVINGGDVSTVVAEEPPALPPDQASTRLPAELEPEPSGEPKLDVALEAAVEAETVPEERARGDPDSSVEPAPVPPEQRPLGSGDQGAEAEGPPAASLCAPDGPAPNTVAQAQAADGAGPEDDTEASRAAAPAEGPPGGIQPEAAEPKPTAEAPKAPRVEEIPQRMTRNRAQMLANQSKQGPPPSEKECAPTPAPVTRAKARGSEDDDAQAQHPRKRRFQRSTQQLQQQLNTSTQQTREVIQQTLAAIVDAIKLDAIEPYHSDRANPYFEYLQIRKKIEEKRKILCCITPQAPQCYAEYVTYTGSYLLDGKPLSKLHIPVIAPPPSLAEPLKELFRQQEAVRGKLRLQHSIEREKLIVSCEQEILRVHCRAARTIANQAVPFSACTMLLDSEVYNMPLESQGDENKSVRDRFNARQFISWLQDVDDKYDRMKTCLLMRQQHEAAALNAVQRMEWQLKVQELDPAGHKSLCVNEVPSFYVPMVDVNDDFVLLPA
B3: EGFP-ANKRD11 full length (FL), wild type [not stated] / endogenous TBLR1 of HEK293T cells and of wild-type Flp-In T-REx 293 cells [human (endogenous in HEK293T and Flp-In T-REx 293)] (parent complex)
chain 1: B2 chain 2
chain 2: B1 chain 1

Variants of: B1
Test: NanoLuc complementation assay; n = 6–7 independent transfections per TBLR1 mutant; read off a plot

Going from chain 1 H441R to chain 1 H213Q, the ratio to parent rises from ~0.55 to ~1.2.

Variants of: B2
Test: NanoLuc complementation assay; n = 3–5 independent transfections per TBLR1 mutant; read off a plot

Going from chain 1 G29D to chain 1 G70D, the ratio to parent rises from ~0.06 to ~0.07.

Going from chain 1 L83Q to chain 1 E63K, the ratio to parent rises from ~0.06 to ~0.37.

chain 1 F10L showed a ratio to parent of ~0.1.

Variants of: B2
Test: co-immunoprecipitation, mass spectrometry; TBLR1-null Flp-In T-REx 293 cells; n = 3 independent transfections; read off a plot

Variant chain 1 G70D has a screen value of ~1.9 log2.

Variants of: B3
Test: co-immunoprecipitation, mass spectrometry; HEK293T cells; n = 3 independent transfections per mutant; read off a plot

First: chain 1 R2523W
Second: chain 1 L2605R
The screen value of the first is lower: ~5.7 log2 for the first, ~8.2 log2 for the second.

Compared with chain 1 S2475P, chain 1 E2522K is lower in screen value: ~8.3 log2 for the first, ~2.6 log2 for the second.
